The results in this text go back to publication PMC9333989.

B1: mouse CD4, wild type [mouse] / Lck (Src kinase) [mouse (endogenous in 58α−β− T cell hybridoma)] (parent)
chain 1: KTLVLGKEGESAELPCESSQKKITVFTWKFSDQRKILGQHGKGVLIRGGSPSQFDRFDSKKGAWEKGSFPLIINKLKMEDSQTYICELENRKEEVELWVFKVTFSPGTSLLQGQSLTLTLDSNSKVSNPLTECKHKKGKVVSGSKVLSMSNLRVQDSDFWNCTVTLDQKKNWFGMTLSVLGFQSTAITAYKSEGESAEFSFPLNFAEENGWGELMWKAEKDSFFQPWISFSIKNKEVSVQKSTKDLKLQLKETLPLTLKIPQVSLQFAGSGNLTLTLDKGTLHQEVNLVVMKVAQLNNTLTCEVMGPTSPKMRLTLKQENQEARVSEEQKVVQVVAPETGLWQCLLSEGDKVKMDSRIQVLSRGVNQTVFLACVLGGSFGFLGFLGLCILCCVRCRHQQRQAARMSQIKRLLSEKKTCQCPHRMQKSHNLI
chain 2: MGCVCSSNPEDDWMENIDVCENCHYPIVPLDSKISLPIRNGSEVRDPLVTYEGSLPPASPLQDNLVIALHSYEPSHDGDLGFEKGEQLRILEQSGEWWKAQSLTTGQEGFIPFNFVAKANSLEPEPWFFKNLSRKDAERQLLAPGNTHGSFLIRESESTAGSFSLSVRDFDQNQGEVVKHYKIRNLDNGGFYISPRITFPGLHDLVRHYTNASDGLCTKLSRPCQTQKPQKPWWEDEWEVPRETLKLVERLGAGQFGEVWMGYYNGHTKVAVKSLKQGSMSPDAFLAEANLMKQLQHPRLVRLYAVVTQEPIYIITEYMENGSLVDFLKTPSGIKLNVNKLLDMAAQIAEGMAFIEEQNYIHRDLRAANILVSDTLSCKIADFGLARLIEDNEYTAREGAKFPIKWTAPEAINYGTFTIKSDVWSFGILLTEIVTHGRIPYPGMTNPEVIQNLERGYRMVRPDNCPEELYHLMMLCWKERPEDRPTFDYLRSVLDDFFTATEGQYQPQP

In this assay the parent is B1. Put plainly: co-IP of Lck with CD4 from sucrose gradient fractions. The conditions noted are these: with Lck (Src kinase) [mouse (endogenous in 58α−β− T cell hybridoma)], mean ± SEM of three independent experiments, read off a plot.
Where [1] appears, read: DRM fractions (center graph), parent: 2.6.
Setting [2] is: DSM fractions (right graph), parent: 8.9.
Setting [3] is: DRM fractions (center graph), parent: 3.7.
Where [4] appears, read: DSM fractions (right graph), parent: 6.9.

Consider chain 1 S406D S413D, for which the response under setting [1] came out at 1.8 AUC and the response under setting [2] came to 8.4 AUC. Turning to chain 1 C392S C395S, the response amounted to 2.1 AUC under setting [3] and 8.9 AUC under setting [4]. The matching figures for chain 1 G377V G380L C392S C395S C418S C420S: 0.85 AUC and 1.2 AUC. Consider chain 1 S406D L411A L412A S413D, for which the response amounted to 0.87 AUC under setting [1] and 6.3 AUC under setting [2]. On to chain 1 S406A S413A, for which, under setting [1], the response came to 3.2 AUC. In the case of chain 1 G377V G380L, the response was 3.5 AUC under setting [3] and 6.4 AUC under setting [4].
